According to patent US20090148461A1 (Kyowa Kirin, published 2009):

Biological target: T1, full length human FGF23 protein (amino acid 25 to amino acid 251 of SEQ ID NO: 4) (human, UniProt Q9GZV9 25-251)
T1 construct: also called full length FGF23; human full length FGF23 protein
T1 sequence: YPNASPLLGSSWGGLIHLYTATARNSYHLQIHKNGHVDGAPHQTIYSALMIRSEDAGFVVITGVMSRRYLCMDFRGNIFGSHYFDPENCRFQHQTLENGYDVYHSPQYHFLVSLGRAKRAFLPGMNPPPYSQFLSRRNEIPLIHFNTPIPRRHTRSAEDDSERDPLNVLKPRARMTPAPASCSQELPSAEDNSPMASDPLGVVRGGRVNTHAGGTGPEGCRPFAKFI
Assay: ELISA screening of hybridoma supernatants

B1: C10 antibody (anti-FGF23 human monoclonal antibody produced by hybridoma C10, FERM BP-10772) (antibody, human IgG1, V domains shown)
VH: QVQLVQSGAEVKKPGASVKVSCKASGYTFTNHYMHWVRQAPGQGLEWMGIINPISGSTSNAQKFQGRVTMTRDTSTSTVYMELSSLRSEDTAVYYCARDIVDAFDFWGQGTMVTVSS
VL: AIQLTQSPSSLSASVGDRVTITCRASQGISSALVWYQQKPGKAPKLLIYDASSLESGVPSRFSGSGSGTDFTLTISSLQPEDFATYYCQQFNDYFTFGPGTKVDIK
notes: also called recombinant C10 antibody
- binding result: binds
